Results reported in patent US20110105412A1.

Molecular target: gp120 YU2 (HIV, type R5 isolate YU2) (UniProt P35961)
Test: SPR, indirect; rising concentrations of mCD4 mixed with unlinked HS12Lb, co-incubated with 40 nM gp120 YU2; readout: gp120 bound to the mAb 17b surface [bottom panel]

miniCD4 peptide (mCD4) showed an EC50 (read off the curve) of 6 nM.
